Measured values from the supplement of paper PMC9876800.

Tested on: peptide library, one residue held at a place counted from the S/T acceptor
Assay: relative phosphorylation of the sub-library (ratio to the mean residue at this position); human; higher = residue favoured
Procedure, shortened: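 Purified recombinant kinases (human or orthologue constructs) were incubated in 384-well plates with biotinylated degenerate peptide sub-libraries, each fixing one residue at one position around a central Ser/Thr. Peptides were at 50 μM, with 50 μM ATP spiked with γ-32P-ATP, for 90 min under kinase-specific conditions. Spots on streptavidin membranes were phosphorimaged and quantified by densitometry. Relative sub-library phosphorylation is a ratio to the mean residue at that position.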

SGK3, construct: aa119-end, sequence (Q96BR1 119-496, looked up): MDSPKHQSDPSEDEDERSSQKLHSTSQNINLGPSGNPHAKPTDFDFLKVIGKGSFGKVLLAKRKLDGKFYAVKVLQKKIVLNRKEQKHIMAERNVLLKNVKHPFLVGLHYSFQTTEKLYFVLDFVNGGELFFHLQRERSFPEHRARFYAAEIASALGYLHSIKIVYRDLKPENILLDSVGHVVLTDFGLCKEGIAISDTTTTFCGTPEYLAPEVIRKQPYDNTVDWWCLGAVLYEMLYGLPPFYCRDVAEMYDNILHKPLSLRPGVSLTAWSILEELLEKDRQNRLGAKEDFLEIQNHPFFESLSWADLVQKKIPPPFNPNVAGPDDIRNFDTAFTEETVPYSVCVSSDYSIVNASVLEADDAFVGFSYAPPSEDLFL

SGK3, construct: aa119-end (from UniProt Q96BR1)
relative phosphorylation
Settings	at +1	at +2	at +3	at +4	at -1	at -2	at -3	at -4	at -5
A fixed	0.678	1.24	1.05	1.13	1.04	1.27	0.733	1.07	1.07
D fixed	0.294	0.423	0.901	0.91	0.498	0.2	0.186	0.53	0.497
E fixed	0.369	0.236	1.05	0.892	0.462	0.194	0.21	0.661	0.509
F fixed	2.98	0.836	1.09	0.843	0.672	0.609	0.352	0.749	0.836
G fixed	0.575	0.701	1.21	1.24	1.77	0.992	0.663	1.23	1.18
H fixed	0.707	1.32	1.05	1.13	1.1	1.2	1.74	1.05	1.05
I fixed	1.71	1.18	0.918	0.896	0.455	0.33	0.305	0.778	0.641
K fixed	0.807	0.987	0.995	1.08	1.71	3.22	2.08	1.73	1.94
L fixed	1.29	1.59	1.06	0.823	0.799	0.412	0.307	0.809	0.72
M fixed	1.88	1.14	1.04	0.92	1.02	0.394	0.349	0.875	0.708
N fixed	0.635	1.02	0.927	0.904	1.08	0.7	0.454	0.753	0.773
P fixed	0.361	0.56	0.835	1.39	1.06	0.558	0.688	1.09	0.991
Q fixed	0.812	0.625	0.996	0.983	0.804	0.676	0.613	0.988	0.752
R fixed	0.935	2.32	1.03	0.99	2.23	4.89	6.97	2.32	2.79
V fixed	1.5	1.05	1.04	0.894	0.614	0.417	0.404	0.953	0.955
W fixed	0.596	0.761	0.849	1.08	0.633	0.437	0.409	0.672	0.753
Y fixed	0.857	1.01	0.955	0.903	1.07	0.497	0.545	0.731	0.831
pThr fixed	0.681	0.529	0.661	0.81	0.359	0.512	0.367	0.743	0.567
pTyr fixed	0.778	0.681	0.97	0.875	0.801	0.44	0.552	0.76	0.791
